Data published in US20220228157A1, “GENE EDITING IN DIVERSE BACTERIA” (priority 2019, published 2022).

Tests used:
[1] = test system: E. coli MG1655; assay: DIvERGE mutagenesis of gyrA, gyrB, parC, parE with ciprofloxacin selection; type: cell-based, Escherichia coli; details: one round of DIvERGE
[2] = test system: Klebsiella pneumoniae ATCC 10031; assay: Recombineering efficiency by LacZ screening; type: cell-based; details: pORTMAGE-based constructs
Source text: (§1) To test the activity of PapRecT and CspRecT in these three organisms, the broad-host-range pORTMAGE system (Nyerges et al., Proc. Natl. Acad. Sci. U.S.A. 113, 2502-2507 (2016)) was built on as described above. For experiments in E. coli PapRecT or CspRecT was subcloned in place of Redβ into pORTMAGE311B (Szili et al., Antimicrob. Agents Chemother. AAC.00207-19 (2019) doi:10.1128/AAC.00207-19) (FIGS. 10A-10B; Addgene accession: #120418), which transiently disrupts MMR with EcMutL_E32K, and whose RSF1010 origin of replication and m-toluic-acid-based expression system allows the plasmid to be deployed over a broad range of bacterial hosts (Honda et al., Proc. Natl. Acad. Sci. U.S.A. 88, 179-183 (1991); Gawin et al., Microb. Biotechnol. 10, 702 (2017)). These same pORTMAGE-based constructs were used for testing in C. freundii and K. pneumoniae. […]
(§2) Oligos were designed to introduce I) premature STOP codons into lacZ for E. coli, K. pneumoniae, and C. freundii, or II) RpsL K43→R; GyrA T83→I; ParC S83→L; RpoB D521→V, or a premature STOP codon into nfxB for P. aeruginosa. […] After recovery overnight, cells were plated at empirically-determined dilutions to a density of 200-500 colonies per plate. […] In all cases, allelic-replacement frequencies were calculated by dividing the number of recombinant CFUs by the number of total CFUs. […]

[3] = test system: Citrobacter freundii ATCC 8090; assay: Recombineering efficiency by LacZ screening; type: cell-based; details: pORTMAGE-based constructs
Source text: as §1, §2

[4] = test system: E. coli; assay: Fifteen cycles of MAGE with pool of 15 oligos, editing efficiency by NGS; type: cell-based, Escherichia coli; details: 15 separate mutations, one week
Method: E. coli populations expressing either an efficient SSAP (SEQ ID NO: 157), an efficient SSAP/SSB pair (SEQ ID NO: 157/SEQ ID NO: 384), or the widely-used Redβ were taken through fifteen cycles of MAGE and transformed each cycle with a 10 μM pool comprising 15 unique oligos. Editing efficiency at each targeted locus was measured by NGS and averaged (FIG. 3).

[5] = test system: E. coli; assay: Editing efficiency by NGS, non-coding mismatch at a non-essential gene; type: cell-based, Escherichia coli; details: silent mismatch MAGE oligo, SEER plasmid system
Method: Top-performing SSAPs and SSAP/SSB pairs from experiments in E. coli, L. lactis, and M. smegmatis are shown in FIG. 2A, FIG. 2B and FIG. 2C, respectively. Bars in red are the proteins that had previously been reported in the literature. The proteins listed were found after ten rounds of selection for protein variants that enabled the introduction of an oligonucleotide that conferred a genomic edit that provided antibiotic resistance. Unbiased editing efficiency was tested in each case by introducing a non-coding base change at a non-essential gene and measuring the frequency of incorporation via next generation sequencing.
Their recombineering efficiency was tested against Redβ expressed off of its wild-type codons on the same plasmid system used for the SEER selections. […]
The efficiency of each SSAP or SSAP/SSB pair was measured by expressing them off of their host-specific plasmid in the naïve parent strain and running a recombineering cycle with an oligo that confers a 4-nucleotide non-coding mismatch in a non-essential gene. The allele was then amplified by PCR and editing efficiency was measured by next-generation sequencing.
To measure single locus editing, a recombineering cycle was run with an oligo that confers a single base pair non-coding mismatch in a non-essential gene. The allele was then amplified by PCR and editing efficiency was measured by NGS as described above. […]

B1: CspRecT: RecT SSAP (UniParc ID: UPI0001837D7F) from a phage of Collinsella stercoris (protein)
chain: MNQIVKFTDDSGLAVQVTPDDVRRYICENATEKEVGLFLQLCQTQRLNPFVKDAYLVKYGGAPASMITSYQVFNRRACRDANYDGIKSGVVVLRDGDVVHKRGAACYKKAGEELIGGWAEVRFKDGRETAYAEVALDDYSTGKSNWAKMPGVMIEKCAKAAAWRLAFPDTFQGMYAAEEMDQAQQPEQVRAQAEQPVDLQPIRELFKPYCEHFGITPAEGMTAVCGAVGAEGMHSMTEQQARRARAWMEEEMAAPAVEAEYEVVDEGEVF
modifications: Collinsella stercoris DSM 13279
Colonies relative to Redβ and PapRecT ([1]; 250 ng/mL CIP, 130 oligos): more than ten times as many colonies | Resistant variants produced ([1]; 1,000 ng/mL CIP): only the use of CspRecT produced resistant variants | Editing performance in K. pneumoniae [2]: optimal choice of protein | Editing performance in C. freundii [3]: optimal choice of protein

B2: Redβ: Redβ SSAP from Enterobacteria phage λ, SEQ ID NO: 474 (protein)
chain: MSTALATLAGKLAERVGMDSVDPQELITTLRQTAFKCDASDAQFIALLIVANQYGLNPWTKEIYAFPDKQNGIVPVVGVDGWSRIINENQQFDGMDFEQDNESCTCRIYRKDRNHPICVTEWMDECRREPFKTREGREITGPWQSHPKRMLRHKAMIQCARLAFGFAGIYDKDEAERIVENTAYTAERQPERDITPVNDETMQEINTLLIALDKTWDDDLLPLCSQIFRRDIRASSELTQAEAVKALGFLKQKATEQKVAA
modifications: Bacteriophage Lambda
Editing efficiency, averaged over targeted loci [4]: ~20%

B3: PapRecT: SSAP from Pseudomonas aeruginosa, SEQ ID NO: 24, UniParc ID: UPI0001E9E6CB (protein, listed as Pseudomonas aeruginosa)
chain: MGTALTPLLTKFATRYEMGTTPEEVANTLKQTCFKGQVNDSQMVALLIVADQYKLNPFTKELYAFPDKNNGIVPVVGVDGWARIINENPQFDGMEFSMDQQGTECTCKIYRKDRSHAISATEYMAECKRNTQPWQSHPRRMLRHKAMIQCARLAFGFAGIYDQDEAERIVERDVTPAEQYEDVSEAICLIKDSPTMEDLQAAFSNAWKAYKTKGARDQLTAAKDQRKKELLDAPIDVEFEETGDDRAA
Efficiency of recombineering at ynfF by NGS [5]: 31%±2%
